Earlier results as cited in article PMC8393563.

Molecular target: PGRMC1 (Homo sapiens) (UniProt O00264)

In the case of PGRMC1 (from UniProt O00264), the Kd is listed as less than 3.5 µM.
